One block for each binder: values may come before it.
How the values were obtained:
[1] = molecular target: T1, human CD3 receptor complex (human, UniProt P07766 23-207; P09693 23-182; P04234 22-171); experiment: cell-based or functional assay
[2] = molecular target: T1, human CD3 receptor complex; experiment: cell-based or functional assay; remark: listed apart in the source
[3] = molecular target: T1, human CD3 receptor complex; experiment: flow cytometry on HUT78 cells (CD3-positive), FITC anti-human IgG detection
Experimental: (§1) Cell suspensions of CD19-positive cell lines (NALM6 (ATCC® CRL-3273™), Toledo (ATCC® CRL-2631™), Namalwa (ATCC® CRL-1432™), Daudi (ATCC® CCL-213™), Ramos (RA 1) (ATCC® CRL-1596™), Raji (ATCC® CCL-86™)) and CD3-positive cell lines (HuT78 (ATCC® TIB-161™), CCRF-CEM (ATCC® CCL-119™), Jurkat (ATCC® TIB-152™)) with the concentration of 2*10⁶ cells/mL were introduced by 30 μL into a 96-well plate with a V-shaped bottom (Corning Inc, Cat. No. 3894). […] When the incubation was over, the cells were twice washed with the FACS buffer and deposited by centrifuging at 1000 rpM and (4±2°) C. 30 μL of a solution of FITC-tagged antibodies directed against human IgG (Donkey F(ab)₂ Anti-Human IgG, Abcam, Cat. No. Ab102437) diluted in the 1:200 ratio were added into each well to the deposited cells, and incubated on ice in the dark for 30 minutes, followed by triple washing with the FACS buffer. Then the cells were fixed by re-suspending the cell deposit in each well in 150 μL of the FIX-buffer (phosphate buffered saline with 1%-solution of formalin). Cell fluorescence intensity in the FITC-channel was measured with the use of the Canto II cytometer.

[4] = molecular target: T1, human CD3 receptor complex; experiment: flow cytometry on Jurkat cells (CD3-positive), FITC anti-human IgG detection
Experimental: as §1

[5] = molecular target: T1, human CD3 receptor complex; experiment: flow cytometry on CCRF-CEM cells (CD3-positive), FITC anti-human IgG detection
Experimental: as §1

[6] = molecular target: T1, human CD3 receptor complex; experiment: flow cytometry on PBMCs of donor; competition of titrated BSAB with 100 nM biotin-conjugated BSAB, PE-streptavidin detection
Experimental: (§2) The blood was diluted with the same volume of the phosphate buffered saline (ECO-Servis, Cat. No. B-60201), layered above Ficoll density gradient (ρ=1.077 g/cm³) (“Pan-Eco”, Cat. No. P052) and centrifuged at 800 g and 20±2° C. for 30 minutes. PBMCs were collected at the phase boundary and washed twice with an isotonic phosphate buffered saline. A cell deposit was re-suspended in 15 mL of the DMEM/F12 medium (Sigma, Cat. No. D8900-10L) with 10% fetal bovine serum (GE Healthcare, Cat. No. SV30160) and incubated in a cultural vial (SPL Life Sciences Co, Cat. No. 70075) for attaching monocytes at 37±2° C. for 4 hours. Upon incubation, unattached cells were collected, a cell suspension was centrifuged, a cell deposit was re-suspended in the FACS buffer with a 1:100 Fc Blook solution (BD Pharmingen™, Cat. No. 564220) for inhibiting non-specific binding of Fc-receptors exposed on B-cell membranes. The prepared PBMC suspension with the cell concentration of 4*10⁶/mL was introduced by 50 μL (2*10⁵ cells per well) into a 96-well plate with a V-shaped bottom (Corning Inc, Cat. No. 3894).
(§3) Then a solution of biotin-conjugated BSAB with the concentration of 300 nM was prepared and introduced into wells with cells by 50 μL (preparation final concentration being 100 nM). […] Cell fluorescence intensity in the PE-channel was measured with the use of the Canto II cytometer. […]

[7] = molecular target: T1, human CD3 receptor complex; experiment: flow cytometry on PBMCs of donor beta; competition of titrated BSAB with 100 nM biotin-conjugated BSAB, PE-streptavidin detection
Experimental: as §2, §3

[8] = molecular target: T1, human CD3 receptor complex; experiment: flow cytometry on PBMCs of donor alpha; competition of titrated BSAB with 100 nM biotin-conjugated BSAB, PE-streptavidin detection
Experimental: as §2, §3

T1 sequence (P07766 23-207, chain 1 of 3): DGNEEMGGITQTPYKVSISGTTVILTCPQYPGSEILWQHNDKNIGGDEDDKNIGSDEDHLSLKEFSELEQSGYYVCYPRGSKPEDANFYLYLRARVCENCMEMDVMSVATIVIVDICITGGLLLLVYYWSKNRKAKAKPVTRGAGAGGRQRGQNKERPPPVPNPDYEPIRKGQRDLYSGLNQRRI
T1 sequence (P09693 23-182, chain 2 of 3): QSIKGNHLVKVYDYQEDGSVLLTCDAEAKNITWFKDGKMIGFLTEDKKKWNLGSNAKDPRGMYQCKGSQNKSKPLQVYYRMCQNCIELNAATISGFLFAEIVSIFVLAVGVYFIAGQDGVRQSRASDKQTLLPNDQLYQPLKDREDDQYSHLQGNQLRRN
T1 sequence (P04234 22-171, chain 3 of 3): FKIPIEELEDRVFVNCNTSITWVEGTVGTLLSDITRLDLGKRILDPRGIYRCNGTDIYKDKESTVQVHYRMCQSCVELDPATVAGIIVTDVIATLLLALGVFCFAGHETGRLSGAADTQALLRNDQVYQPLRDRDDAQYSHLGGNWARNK

B3: 309_02_A08 BSAB clone (bispecific antibody)
chain: DIQLTQTPASLAVSLGQRATISCKASQSVDYDGDSYLNWYQQIPGQPPKLLIYDASNLVSGIPPRFSGSGSGTDFTLNIHPVEKVDAATYHCQQSTEDPWTFGGGTKLEIKGGSGGAMAQVQLVQSGAEVKKPGASVKVSCKASGYTFTGYYMHWVRQAPGQGLEWMGIINPSGGSTSYAQKFQGRVTMTRDTSTSTVYMELSSLRSEDTAVYYCARTGKNYYYYGMDAWGQGTTVTVSSGGGGSGGGGSGGGASNFMLTQPHSVSESPGKTVTISCTRSSGSIARNYVQWYQQRPGSSPTTVIYEDNQRPSGVPDRFSASIDSSSNSASLTISGLQTEDEADYYCQSYDTSNHVVFGGGTKLTVLGQPAAAGGGGSQVQLQQSGAELVRPGSSVKISCKASGYAFSSYWMNWVKQRPGQGLEWIGQIWPGDGDTNYNGKFKGKATLTADESSSTAYMQLSSLASEDSAVYFCARRETTTVGRYYYAMDYWGQGTSVTVSSASAAVECPPCPAPPVAGPSVFLFPPKPKDTLMISRTPEVTCVVVDVSHEDPEVQFNWYVDGVEVHNAKTKPREEQFNSTFRVVSVLTVVHQDWLNGKEYKCKVSNKGLPAPIEKTISKTKGQPREPQVYTLPPSREEMTKNQVSLTCLVKGFYPSDIAVEWESNGQPENNYKTTPPMLDSDGSFFLYSKLTVDKSRWQQGNVFSCSVMHEALHNHYTQKSLSLSPGK
notes: described order VL CD3-VH CD19-VL CD19-VH CD3 with hinge and IgG2 Fc; the tie is not explicit; also called BSAB preparation
EC50 of chemiluminescence signal, Raji cells with Jurkat-Luc-NFAT reporter cells [2]: 0.0023 nM
Activity (EC50 for activation of Jurkat line cells, pM) [1]: 2.2 pM
EC50 [3]: 1.2 nM
EC50 [4]: 0.37 nM
EC50 [5]: 0.4 nM
IC50 [6]: 62.3 nM
IC50 [7]: 66.5 nM
IC50 [8]: 52.1 nM

B4: 309_02_F01 (bispecific antibody)
chain: DIQLTQTPASLAVSLGQRATISCKASQSVDYDGDSYLNWYQQIPGQPPKLLIYDASNLVSGIPPRFSGSGSGTDFTLNIHPVEKVDAATYHCQQSTEDPWTFGGGTKLEIKGGSGGAMAEVQLVQSGAEVKKPGASVKVSCKASGYTFTGYYMHWVRQAPGQGLEWMGWINPNSGGTNYAQKFQGRVTMTRDTSISTAYMELSSLRSEDTAVYYCARDKRYSSGWYENWGQGTLVTVSSGGGGSGGGGSGGGASNFMLTQPHSVSESPGKTVTISCTRSSGSIASKYVQWYQQRPGSSPTTVIYEDNQRPSGVPDRFSGSIDISSNSASLTISGLKTEDEADYFCQSYDSSSVIFGGGTKLTVLGQPAAAGGGGSQVQLQQSGAELVRPGSSVKISCKASGYAFSSYWMNWVKQRPGQGLEWIGQIWPGDGDTNYNGKFKGKATLTADESSSTAYMQLSSLASEDSAVYFCARRETTTVGRYYYAMDYWGQGTSVTVSSASAAVECPPCPAPPVAGPSVFLFPPKPKDTLMISRTPEVTCVVVDVSHEDPEVQFNWYVDGVEVHNAKTKPREEQFNSTFRVVSVLTVVHQDWLNGKEYKCKVSNKGLPAPIEKTISKTKGQPREPQVYTLPPSREEMTKNQVSLTCLVKGFYPSDIAVEWESNGQPENNYKTTPPMLDSDGSFFLYSKLTVDKSRWQQGNVFSCSVMHEALHNHYTQKSLSLSPGK
Activity (EC50 for activation of Jurkat line cells, pM) [1]: 32.2 pM

More lines, now with the values ahead:

Activity (EC50 for activation of Jurkat line cells, pM) [1]: 328 pM
B1: 400_03_H07 (bispecific antibody)
chain: DIQLTQTPASLAVSLGQRATISCKASQSVDYDGDSYLNWYQQIPGQPPKLLIYDASNLVSGIPPRFSGSGSGTDFTLNIHPVEKVDAATYHCQQSTEDPWTFGGGTKLEIKGGSGGAMAQVQLVESGGGVVQPGRSLRLSCAASGFTFSSYSMNWVRQAPGKGLEWVSSISSSSSYIYYADSVKGRFTISRDNAKNSLYLQMNSLRAEDTAVYYCARSGIAAAGFDYWGQGTLVTVSSGGGGSGGGGSGGGASNFMLTQPHSVSESPGKTVTISCARSSGSIASNYVQWYQQRPGSSPTTVIYEDNRRPSGVPDRFSGSFDSSSNSASLTISGLKTEDEADYYCQSYDSSNRVFGGGTKLTVLGQPAAAGGGGSQVQLQQSGAELVRPGSSVKISCKASGYAFSSYWMNWVKQRPGQGLEWIGQIWPGDGDTNYNGKFKGKATLTADESSSTAYMQLSSLASEDSAVYFCARRETTTVGRYYYAMDYWGQGTSVTVSSASAAVECPPCPAPPVAGPSVFLFPPKPKDTLMISRTPEVTCVVVDVSHEDPEVQFNWYVDGVEVHNAKTKPREEQFNSTFRVVSVLTVVHQDWLNGKEYKCKVSNKGLPAPIEKTISKTKGQPREPQVYTLPPSREEMTKNQVSLTCLVKGFYPSDIAVEWESNGQPENNYKTTPPMLDSDGSFFLYSKLTVDKSRWQQGNVFSCSVMHEALHNHYTQKSLSLSPGK

Activity (EC50 for activation of Jurkat line cells, pM) [1]: 3.7 pM
B2: 309_04_A04 (bispecific antibody)
chain: DIQLTQTPASLAVSLGQRATISCKASQSVDYDGDSYLNWYQQIPGQPPKLLIYDASNLVSGIPPRFSGSGSGTDFTLNIHPVEKVDAATYHCQQSTEDPWTFGGGTKLEIKGGSGGAMAQVQLQQWGAGLLKPSETLSLTCAVYGGSFSGYYWSWIRQPPGKGLEWIGEISRSGTTNYNSSLKSRVTISVDTSKNQFSLKLSSVTAADTAVYYCARATRNGVFDYWGQGTLVTVSSGGGGSGGGGSGGGASNFMLTQPHSVSESPGKTVTISCTRSSGSIASNYVQWYQQRPGSAPSTVIYEDNQRPSGVPDRFSGSIDSSSNSASLTISGLKTEDEADYYCQSYDSGVVFGGGTKLTVLGQPAAAGGGGSQVQLQQSGAELVRPGSSVKISCKASGYAFSSYWMNWVKQRPGQGLEWIGQIWPGDGDTNYNGKFKGKATLTADESSSTAYMQLSSLASEDSAVYFCARRETTTVGRYYYAMDYWGQGTSVTVSSASAAVECPPCPAPPVAGPSVFLFPPKPKDTLMISRTPEVTCVVVDVSHEDPEVQFNWYVDGVEVHNAKTKPREEQFNSTFRVVSVLTVVHQDWLNGKEYKCKVSNKGLPAPIEKTISKTKGQPREPQVYTLPPSREEMTKNQVSLTCLVKGFYPSDIAVEWESNGQPENNYKTTPPMLDSDGSFFLYSKLTVDKSRWQQGNVFSCSVMHEALHNHYTQKSLSLSPGK

Activity (EC50 for activation of Jurkat line cells, pM) [1]: 17.5 pM
B5: 400_01_D06 (bispecific antibody)
chain: DIQLTQTPASLAVSLGQRATISCKASQSVDYDGDSYLNWYQQIPGQPPKLLIYDASNLVSGIPPRFSGSGSGTDFTLNIHPVEKVDAATYHCQQSTEDPWTFGGGTKLEIKGGSGGAMAQVQLVQSGAEVKKPGSSVKVSCKASGGTFSSYAISWVRQAPGQGLEWMGGIIPIFGTANYAQKFQGRVTITADESTSTAYMEVRSLRSDDTAVYYCVRDRGDYGDITYFDYWGQGTLVTVSSGGGGSGGGGSGGGASNFMLTQPHSVSESPGKTVTISCTGSSGSIASNYVQWYQQRPGSAPTIVIYEDNHRPSGVPDRFSGSIDSSSNSASLTISGLKTEDEADYYCQSYDSSDRVVFGGGTKVTVLGQPAAAGGGGSQVQLQQSGAELVRPGSSVKISCKASGYAFSSYWMNWVKQRPGQGLEWIGQIWPGDGDTNYNGKFKGKATLTADESSSTAYMQLSSLASEDSAVYFCARRETTTVGRYYYAMDYWGQGTSVTVSSASAAVECPPCPAPPVAGPSVFLFPPKPKDTLMISRTPEVTCVVVDVSHEDPEVQFNWYVDGVEVHNAKTKPREEQFNSTFRVVSVLTVVHQDWLNGKEYKCKVSNKGLPAPIEKTISKTKGQPREPQVYTLPPSREEMTKNQVSLTCLVKGFYPSDIAVEWESNGQPENNYKTTPPMLDSDGSFFLYSKLTVDKSRWQQGNVFSCSVMHEALHNHYTQKSLSLSPGK

Source: patent US20230212288A1 (published 2023)
